To fix the notation:
T1: human Siglec-14 (human, UniProt Q08ET2 17-396)
T1 construct: also called CHO-S14; CHO-S hSiglec-14
T1 sequence: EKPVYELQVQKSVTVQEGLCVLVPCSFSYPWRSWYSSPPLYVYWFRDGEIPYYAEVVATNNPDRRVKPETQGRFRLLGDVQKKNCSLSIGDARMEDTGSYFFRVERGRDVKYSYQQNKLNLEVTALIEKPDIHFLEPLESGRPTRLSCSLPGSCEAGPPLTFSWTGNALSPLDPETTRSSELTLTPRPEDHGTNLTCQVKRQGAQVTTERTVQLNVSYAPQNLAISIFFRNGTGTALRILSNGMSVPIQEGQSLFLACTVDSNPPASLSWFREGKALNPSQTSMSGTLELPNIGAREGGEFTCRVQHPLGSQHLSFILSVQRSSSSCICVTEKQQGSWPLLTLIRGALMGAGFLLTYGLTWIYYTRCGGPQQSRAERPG

T2: Histidine-tagged human Siglec-5 (NovoProtein) (human, UniProt O15389 17-434, limits assumed)
T2 construct: Bought soluble protein; also called His-tagged human Siglec-5; not shown: histidine tag
T2 sequence: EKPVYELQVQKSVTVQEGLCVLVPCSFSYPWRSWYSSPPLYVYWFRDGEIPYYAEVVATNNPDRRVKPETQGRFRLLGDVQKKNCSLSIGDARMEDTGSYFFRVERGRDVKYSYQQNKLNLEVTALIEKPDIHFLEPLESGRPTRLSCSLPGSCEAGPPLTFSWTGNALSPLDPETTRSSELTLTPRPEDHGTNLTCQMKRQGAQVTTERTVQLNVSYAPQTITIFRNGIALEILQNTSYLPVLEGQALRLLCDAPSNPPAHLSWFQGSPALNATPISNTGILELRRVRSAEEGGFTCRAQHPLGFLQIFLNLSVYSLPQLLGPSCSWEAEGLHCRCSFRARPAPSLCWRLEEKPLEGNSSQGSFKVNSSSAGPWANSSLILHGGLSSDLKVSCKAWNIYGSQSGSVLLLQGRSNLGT

B1: S5-176 (antibody, V domains shown)
VH: QAYLQQSGPELVKPGASVKVSCKASGYSFTDYNIYWVKQSHGKSLEWIGYFDPYNGGTNYNQRFKDKATLTVDKSSSTAFMQLNSLTSEDSAVYYCAREGYGYDDREWFAYWGQGTLVTVSA
VL: DIVMTQSPSSLAASVGEKVTMSCKSSQSLLYSTNQMTYLAWYQQKPGQSPKLLIFWASTRESGVPDRFTGSGSGTDFTLTISSVKAEDLAVYYCHQFYSYPFTFGSGTRWEIK
notes: Mouse-derived variable domains; expressed in mammalian cells as full antibody; hIgG1 isotype control
B2: S5-183 (antibody, V domains shown)
VH: QAYLQQSGPGLVAPSQSLSITCTVSGFSVTSYGVSWVRQPPGKGLEWLGVIWGDGSTNYHSDLISRLSISKDNSKSQVFLKLNSLQIADTATYYCARPRAFYYGSRGYWYFDVWGTGTTVAVSS
VL: DIVMTQSPASLSASVGETVTITCRASENIYSYLAWYQQKQGKSPQLLVYNTKTLVEGVPSRFSGSGSDTQFSLKINSLQPEDFGTYYCQHHYGPPPTFGTGTKLELK
notes: as for B1
B3: S5-202 (antibody, V domains shown)
VH: B2 VH with F27L, V29L, D62A, I87T, A88D, R97K, R99G, G107Y, A121T
VL: DIQMTQAHKVMSTSVGDRVSITCKASQDVSTAVAWYQQKPGQSPKLLIYSASYRYTGVPDRFTGSGSGTDFTFTISSVQAEDLAVYYCQQHYSPPPTFGGGTRREIK
notes: Mouse-derived variable domains; expressed in mammalian cells as full antibody; also called S5-PN202
B4: S5-182 (antibody, V domains shown)
VH: QAYLQQSGAELVKPGASVKLSCKASGYTFTSYWLHWVKQRPGQGLEWIGMIHPNSGSTDYNERFKSKATLIVDKSSSTAYMQLSSLTSEDSAVYYCAKTFYYFDYWGQGTALTVSS
VL: DVVMTQSPSSMYASLGERVTITCKASQDINSYLSWFQQKPGKSPKTLIYRANRLVDGVPSRFSGSGSGQDYSLTISSLEYEDMGIYYCLQYDELYTFGGGTKLEIK
notes: as for B1

Substitutions are numbered along the chain they refer to.

One assay concerns the target T1, human Siglec-14. In words: FACS, CHO cells stably transfected with human Siglec-14 (CHO-S14), fluorescent secondary antibody; y-axis Binding (Fold over background); antibody concentration not shown. The protocol:
The anti-Siglec-5 antibodies were evaluated for their ability to bind to CHO cells which were stably transfected with human Siglec-5 (CHO-S5) or human Siglec-14 (CHO-S14). The anti-Siglec-5 antibodies were also evaluated for their ability to bind to primary human neutrophils. Cells were incubated with various dilutions of the anti-Siglec-5 antibodies for 30 minutes on ice in the dark, followed by a 30-minute incubation with a fluorescently-conjugated anti-human IgG secondary antibody. Cells were washed twice in FACS buffer (PBS+2% FBS, 2 mM EDTA), and flow cytometry was performed on a BD FACS Canto. Data were analyzed using FlowJo software (Ashland, Oreg.). In the figures, “hIgG1” and “mIgG1” refer to isotype control antibodies, and “S5/14 1A5” refers to a commercially available antibody that binds both Siglec-5 and Siglec-14 (BioLegend, clone 1A5).
In general terms: A flow cytometer gives signals particle by particle.
Turning to B1, the binding result is “no binding”.

Turning to B2, the binding result was “no binding”.

On to B3, for which the binding result is recorded as “no binding”.

On to B4, for which the binding result is listed as “no binding”.

Another assay addresses T2, Histidine-tagged human Siglec-5 …. Put plainly: array SPR, antibody immobilized, His-tagged human Siglec-5 (0-500 nM) in solution; apparent affinity. The protocol: The apparent binding affinities of the anti-Siglec-5 antibodies were measured by array surface plasmon resonance (SPR), according to standard techniques (Abdiche, et al. (2016) MAbs 8:264-277). Briefly, anti-Siglec-5 antibodies were immobilized on a HC 30M chip at four different densities, at antibody concentration of 10 μg/mL, 2.5 μg/mL, 0.63 μg/mL, and 0.16 μg/mL. Varying concentrations (0-500 nM) of Histidine-tagged human Siglec-5 or cynomolgus Siglec-5 (NovoProtein) were then bound to the captured anti-Siglec-5 surface (5 min injection time, 15 min dissociation time) in HBS-EP⁺/1 mg/mL BSA running buffer. Kinetic analysis was performed using Carterra software to extract association and dissociation rate constants (kₐ and kd, respectively) for each antibody. Apparent affinity constants (KD) were calculated from the ratio kd/kₐ. None of the anti-Siglec-5 antibodies bound to cynomolgus Siglec-5 protein.
B1: the Kd stood at 1.1 nM; the koff – broadly, the first-order rate constant of dissociation – was determined as 0.00051 s⁻¹; the kon (usually the second-order rate constant of association) was determined as 470000 M⁻¹ s⁻¹.

With B2, the Kd was determined as 61 nM, the koff was found to be 0.0013 s⁻¹ and the kon stood at 21000 M⁻¹ s⁻¹.

For B3, the Kd was 31 nM, the koff is 0.0011 s⁻¹ and the kon turned out to be 36000 M⁻¹ s⁻¹.

On to B4, for which the Kd is 5.3 nM, the koff was 0.00085 s⁻¹ and the kon turned out to be 160000 M⁻¹ s⁻¹.

These data come from patent publication US20210395361A1 (Alector, published 2021).
